ChEMBL document CHEMBL1671804, “Normal and abnormal heme biosynthesis. Part 7. Synthesis and metabolism of coproporphyrinogen-III analogues with acetate or butyrate side chains on rings C and D. Development of a modified model for the active site of coproporphyrinogen oxidase” (Bioorg Med Chem, 2011)

Key:
[1] = target: T1, Oxygen-dependent coproporphyrinogen-III oxidase, mitochondrial (Homo sapiens) (UniProt P36551); assay: Activity at recombinant human CPO assessed as product formation after 30 mins
T1 sequence (whole entry): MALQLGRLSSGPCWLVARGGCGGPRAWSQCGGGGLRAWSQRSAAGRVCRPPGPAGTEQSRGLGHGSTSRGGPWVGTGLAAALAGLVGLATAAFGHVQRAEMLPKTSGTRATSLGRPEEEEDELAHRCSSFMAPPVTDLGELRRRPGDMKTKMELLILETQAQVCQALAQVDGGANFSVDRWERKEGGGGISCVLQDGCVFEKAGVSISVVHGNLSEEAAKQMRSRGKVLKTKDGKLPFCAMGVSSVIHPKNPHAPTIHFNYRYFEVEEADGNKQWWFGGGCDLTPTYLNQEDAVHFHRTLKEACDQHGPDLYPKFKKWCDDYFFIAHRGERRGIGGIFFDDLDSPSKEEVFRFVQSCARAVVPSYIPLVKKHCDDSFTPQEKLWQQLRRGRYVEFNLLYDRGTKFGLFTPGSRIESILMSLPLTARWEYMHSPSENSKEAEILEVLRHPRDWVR

[2] = test system: Uroporphyrinogen decarboxylase (Gallus gallus); assay: Activity at chicken red cell hemolysate URO-D assessed as product formation after 150 mins
[3] = substrate: Cc1c2[nH]c(c1CCC(=O)O)Cc1[nH]c(c(CCC(=O)O)c1C)Cc1[nH]c(c(CCCC(=O)O)c1C)Cc1[nH]c(c(C)c1CCCC(=O)O)C2; assay: (§1) Activity at recombinant human CPO
[4] = substrate: Cc1c2[nH]c(c1CCC(=O)O)Cc1[nH]c(c(CCC(=O)O)c1C)Cc1[nH]c(c(CC(=O)O)c1C)Cc1[nH]c(c(C)c1CC(=O)O)C2; assay: as §1
[5] = substrate: Cc1c2[nH]c(c1CCC(=O)O)Cc1[nH]c(c(CCC(=O)O)c1C)Cc1[nH]c(c(CCC(=O)O)c1C)Cc1[nH]c(c(C)c1CCC(=O)O)C2; assay: as §1

| Activity [1] | Molecule | Activity [2] | Km [3] | Km [4] | Km [5] |
| --- | --- | --- | --- | --- | --- |
| 35.7% | Cc1c2[nH]c(c1CCC(=O)O)Cc1[nH]c(c(CCC(=O)O)c1C)Cc1[nH]c(c(CC(=O)O)c1C)Cc1[nH]c(c(C)c1CC(=O)O)C2 | 49.5% |  |  |  |
|  | Oxygen-dependent coproporphyrinogen-III oxidase, mitochondrial (Homo sapiens), P36551 (protein) MALQLGRLSSGPCWLVARGGCGGPRAWSQCGGGGLRAWSQRSAAGRVCRPPGPAGTEQSRGLGHGSTSRGGPWVGTGLAAALAGLVGLATAAFGHVQRAEMLPKTSGTRATSLGRPEEEEDELAHRCSSFMAPPVTDLGELRRRPGDMKTKMELLILETQAQVCQALAQVDGGANFSVDRWERKEGGGGISCVLQDGCVFEKAGVSISVVHGNLSEEAAKQMRSRGKVLKTKDGKLPFCAMGVSSVIHPKNPHAPTIHFNYRYFEVEEADGNKQWWFGGGCDLTPTYLNQEDAVHFHRTLKEACDQHGPDLYPKFKKWCDDYFFIAHRGERRGIGGIFFDDLDSPSKEEVFRFVQSCARAVVPSYIPLVKKHCDDSFTPQEKLWQQLRRGRYVEFNLLYDRGTKFGLFTPGSRIESILMSLPLTARWEYMHSPSENSKEAEILEVLRHPRDWVR |  | 0.76 µM | 6.8 µM | 0.68 µM |
